From US20240288436A1 (KOREA ATOMIC ENERGY RESEARCH INSTITUTE, published 2024) come the findings set out here.

Where a chain is given by its changes, count along the chain named. Numbers in names are those of the source.

T1: Biotin-GSAGGSTWGYPFHDGDYLNDE synthetic peptide (human TM4SF4 aa 126-140) (human, N-terminal biotin)
T1 construct: Immobilised on a streptavidin sensor chip as the SPR ligand; also called Biotin-hTM4SF4 aa 126-140; human TM4SF4-peptide (hTM4SF4 aa 126-140)
T1 peptide: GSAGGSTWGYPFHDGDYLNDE

B1: Hz2B7-1.3 humanized anti-TM4SF4 antibody (LC N31V) (antibody, V domains shown)
VH: EITLKESGPTLVKPTQTLTLTCTFSGFSLSTYGIGVSWIRQPPGKALEWLAHIWWNDNKYYNTALKSRLTITKDTSKNQVVLTMTNMDPVDTATYYCARKEGSSAPFAYWGQGTLVTVSS
VL: DIVMTQSPDSLAVSLGERATINCKSSQSLLVSSNQKNYLAWYQQKPGQPPKLLIYFASTRESGVPDRFSGSGSGTDFTLTISLMQAEDVAVYYCQQHYRTPPTFGQGTKVEIK
notes: Whole IgG, human IgG1 / kappa constant regions from the pdCMV-dhfr vector; only VH and VL are tied to the antibody; also called HzE2B7-1.3; HzE2B7-1.3(LC N31V)
B2: Hz2B7-1.1 humanized anti-TM4SF4 antibody (antibody, human IgG1, V domains shown)
VH: B1 VH
VL: B1 VL with V31N
notes: Tested as whole IgG from the pdCMV-dhfr vector (human IgG1 heavy constant, human kappa light constant); also called HzE2B7-1.1; HzE2B7-1.1(origin)
B3: Hz2B7-3.2 humanized anti-TM4SF4 antibody (HC W55S, LC N31F) (antibody, V domains shown)
VH: B1 VH with W55S
VL: B1 VL with V31F
notes: Whole IgG, human IgG1 / kappa constant regions; also called HzE2B7-3.2; HzE2B7-3.2(HC W55S, LC N31F)
B4: Hz2B7-3.3 humanized anti-TM4SF4 antibody (antibody, human IgG1, V domains shown)
VH: B1 VH with W55S
VL: B1 VL
notes: Whole IgG, human IgG1 / kappa constant regions
B5: Hz2B7-4.2 humanized anti-TM4SF4 antibody (antibody, human IgG1, V domains shown)
VH: B1 VH with W55Y
VL: B1 VL with V31F
notes: as for B4
B6: Hz2B7-4.3 humanized anti-TM4SF4 antibody (HC W55Y, LC N31V) (antibody, V domains shown)
VH: B1 VH with W55Y
VL: B1 VL
notes: Whole IgG, human IgG1 / kappa constant regions; also called HzE2B7-4.3; HzE2B7-4.3(HC W55Y, LC N31V)
B7: Hz2B7-1.2 humanized anti-TM4SF4 antibody (LC N31F) (antibody, V domains shown)
VH: B1 VH
VL: B1 VL with V31F
notes: Whole IgG, human IgG1 / kappa constant regions from the pdCMV-dhfr vector; only VH and VL are tied to the antibody; also called HzE2B7-1.2; HzE2B7-1.2(LC N31F)
B8: Hz2B7-3.1 humanized anti-TM4SF4 antibody (antibody, human IgG1, V domains shown)
VH: B1 VH with W55S
VL: B1 VL with V31N
notes: as for B4
B9: Hz2B7-4.1 humanized anti-TM4SF4 antibody (antibody, human IgG1, V domains shown)
VH: B1 VH with W55Y
VL: B1 VL with V31N
notes: as for B4
B10: Hz2B7-2.1 humanized anti-TM4SF4 antibody (antibody, human IgG1, V domains shown)
VH: B1 VH with A46V
VL: B1 VL with V31N
notes: as for B4

The target in one test is T2, BSA (UniProt P02769 25-607).
T2 construct: Coated at 1 ug/ml as the specificity control; also called BSA solution
T2 sequence (P02769 25-607 limits assumed): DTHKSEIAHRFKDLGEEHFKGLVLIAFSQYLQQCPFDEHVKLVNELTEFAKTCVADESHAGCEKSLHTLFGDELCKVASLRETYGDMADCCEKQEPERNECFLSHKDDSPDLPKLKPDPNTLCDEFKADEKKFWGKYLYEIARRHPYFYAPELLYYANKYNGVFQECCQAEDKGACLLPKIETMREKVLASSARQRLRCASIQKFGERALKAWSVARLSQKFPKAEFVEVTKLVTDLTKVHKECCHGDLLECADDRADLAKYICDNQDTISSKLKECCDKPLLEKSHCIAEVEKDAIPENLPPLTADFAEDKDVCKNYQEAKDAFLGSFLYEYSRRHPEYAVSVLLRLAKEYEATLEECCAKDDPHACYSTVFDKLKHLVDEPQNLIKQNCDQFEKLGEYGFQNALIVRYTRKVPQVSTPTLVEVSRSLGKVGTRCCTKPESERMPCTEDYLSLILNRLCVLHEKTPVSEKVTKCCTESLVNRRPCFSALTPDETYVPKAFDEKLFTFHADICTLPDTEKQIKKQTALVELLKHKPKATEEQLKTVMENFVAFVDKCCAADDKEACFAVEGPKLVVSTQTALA
Briefly: indirect ELISA on coated BSA (1 µg/ml), anti-human IgG kappa-HRP, OD490nm. As for the experimental part:
Specifically, the humanized antibody was manufactured in 10 types of Hz2B7-1.1, Hz2B7-1.2, Hz2B7-1.3, Hz2B7-2.1, Hz2B7-3.1, Hz2B7-3.2, Hz2B7-3.3, Hz2B7-4.1, Hz2B7-4.2 and Hz2B7-4.3, by combining 4 heavy chain variable region variants and 3 light chain variable region variants designed through Examples 1 and 2 above. For this, 100 μ of TM4SF4-BSA (1 μg/m ) or BSA solution (1 μg/M ) dissolved in coating buffer (100 mM carbonate/bicarbonate coating buffer, pH 9.6) was added to the bottom of each well of a 96-well plate and adsorbed at 4° C. for more than 16 hours. Next, the coated antigen was washed three times with washing buffer (wash buffer, 0.05% PBS-T, Tween-20), then 200 μ of block buffer (blocking buffer, 5% skim milk in wash buffer) was added to the bottom of each well where the antigen was not adsorbed, reacted at 4° C. for more than 16 hours, and then washed again three times with washing buffer. Then, the 10 combinations of the humanized antibodies and the chimeric antibodies purified through Experimental Example 1 were prepared by diluting them to various concentrations using block buffer, and then 100 μ a of each concentration was added to each well and reacted for 2 hours at room temperature. After washing again three times, 1 mg/ml antibody (α-human IgG-Kappa chain-HRP, Bethyl, USA) for detection was diluted 10,000-fold using block buffer solution, and 100 μ was added to each well and incubated at room temperature for 1 hour. After the reaction was completed, the wells were washed three times with washing buffer, 100 μl of substrate solution (OPD solution, 4 μ 30% H₂O₂, 100 μ OPD stock (40 mg/m ), adjusted to 10 m with phosphate citrate buffer) was added to each well, and the reaction was performed at room temperature. Then, 50 μl of 2.5M H₂SO₄ was added to terminate the reaction. Finally, to measure the activity of the enzyme bound to the solid phase, the absorbance was measured at 490 nm using an ELISA reader (FIG. 10).
For orientation: In an ELISA, binding on a coated surface is turned into a signal by an enzyme label.
As for B1, the binding result was “no binding (tested: 1000 ng/ml)”. Same read-out and setting: as for B2, the entry is “no binding (tested: 1000 ng/ml)”. Same read-out and setting: as for B3, the entry is “no binding (tested: 1000 ng/ml)”.

B4: the binding result was “no binding (tested: 1000 ng/ml)”. The same measure, in the same setting: then B5, with “no binding (tested: 1000 ng/ml)”; and B6, with “no binding (tested: 1000 ng/ml)”; and B7, with “no binding (tested: 1000 ng/ml)”. Same read-out and setting: then B8, with “no binding (tested: 1000 ng/ml)”. Still for that read-out and setting: then B9, with “no binding (tested: 1000 ng/ml)”; and B10, with “no binding (tested: 1000 ng/ml)”.

A further test addresses T1, Biotin-GSAGGSTWGYPFHDGDYLNDE synthetic …. Briefly: SPR, Biacore T200, biotin-peptide on streptavidin chip, antibody as analyte, 1:1 binding. As for the experimental part: (§1) First, a streptavidin-conjugated sensor chip (Series S Senser Chip SA, Cytiva) was inserted into Biacore T200 (Cytiva), and activation buffer (1M NaCl, 50 mM NaOH) was flowed for 30 seconds, followed by HBS-EP buffer (Cytiva) to induce activation and stabilization of the sensor chip surface. […] The analyze antibodies of each concentration were flowed through the constructed ligand-bound streptavidin conjugated sensor chip at a rate of 30 ul/min for 480 seconds to induce binding, and then HBS-EP buffer solution was flowed at the same time and speed, and the degree to which the analyte antibody was dissociated from the ligand peptide was obtained in the form of a response unit. The association rate (Ka), dissociation rate (Kd), and equilibrium dissociation constant (KD, Kd/Ka) values were calculated using Biacore T200 evaluation software (Cytiva) by excluding the ligand-unbound sensor chip response values obtained in the same manner. As a calculation standard, the mass transfer fitting model for the interaction between the ligand peptide and the analyte antibody was analyzed using 1:1 binding.
(In general: In SPR one partner is held on a chip, and binding of the other changes the refractive index at the surface.)
For B1, the affinity, expressed as Kd, was 35.4 nM. On to B3, for which the affinity, expressed as Kd, was 112 nM. This Kd is about 3.2-fold higher than that of the molecule before.

The next test shares this target. Briefly: SPR (Biacore T200), biotin-TM4SF4(126-140) peptide captured on SA sensor chip, antibody as analyte, 1:1 binding model with mass transfer. How it is done: as §1
B3: the koff amounted to 0.000792 s⁻¹ and the on-rate (kon) was determined as 7080 M⁻¹ s⁻¹.

A word on the Kd: it is the equilibrium constant for the complex coming apart. Lower therefore signals a tighter complex. As usually defined, the koff is a measure of how fast the partners let go of each other. As usually defined, the kon is the rate constant with which the complex forms.
